We go through 1 molecule from patent publication US20250236653A1.

For assay [1], the target named is cynomolgus monkey OX40 (cynomolgus monkey). The assay can be described thus: flow cytometry on cOX40-Jurkat-NF-κB cells.
The target in assay [2] is human OX40 (human) (UniProt P43489). The assay can be described thus: cell-based or functional assay.
The target is the same in assay [3]. The assay can be described thus: flow cytometry, traditional IgG1 bivalent mAb on hOX40-Jurkat-NF-κB cells, APC anti-human IgG Fc detection. On the technique in general: Flow cytometry measures light scatter and fluorescence of single cells or particles in a stream.

human OX40 (human), sequence (P43489 29-277): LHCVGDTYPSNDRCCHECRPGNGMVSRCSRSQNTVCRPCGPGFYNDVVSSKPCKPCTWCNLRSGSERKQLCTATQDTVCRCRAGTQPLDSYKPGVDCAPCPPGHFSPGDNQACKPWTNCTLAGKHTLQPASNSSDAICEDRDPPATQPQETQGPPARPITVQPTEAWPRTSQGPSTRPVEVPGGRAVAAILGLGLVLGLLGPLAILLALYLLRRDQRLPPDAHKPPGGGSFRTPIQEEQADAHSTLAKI

B1: hG1-20E5 (antibody, from another filing, V domains shown)
VH: EVQLQQSGPELVKPGASVKMSCKASGYTFTSYVMHWVKQKPGQGLEWIGYINPYNDGTKYNEKFKGKATLTSDKSSSTAYMELSSLTSEDSAVYYCANYYGSSLSMDYWGQGTSVTVSS
VL: DIQMTQTTSSLSASLGDRVTISCRASQDISNYLNWYQQKPDGTVKLLIYYTSRLHSGVPSRFSGSGSGTDYSLTISNLEQEDIATYFCQQGNTLPWTFGGGTKLEIKR
What is called EC50 is the concentration that produces a half-maximal response. As for B1, the fold difference of EC50 against hOX40-Jurkat-NF-κB cells in assay [1] was less than 2 fold. Besides, in the assay with human OX40 (human) [2], the percentage of GFP positive hOX40/hIL-12R/Jurkat-NF-κB reporter cells in the presence of A20-hFcγRI cells, EC50 came out at 0.13 nM. In the assay with human OX40 (human) [3], the concentration giving a half-maximal response (EC50) was found to be 10.2 nM.
